Positions count from the first letter of the chain named.

This is an account of results in US20250269047A1 (MABWELL SHANGHAI BIOSCIENCE, published 2025).

B1: hz9B11-1 (antibody, human IgG1, kappa)
heavy: not shown
light: EIVLTQSPGTLSLSPGERATLSCRASQSINNNLHWYQQKPGQAPRLLIYYASQSISGIPDRFSGSGSGTDFTLTISRLEPEDFAVYYCQQSHSWPYTFGQGTKLEIKRTVAAPSVFIFPPSDEQLKSGTASVVCLLNNFYPREAKVQWKVDNALQSGNSQESVTEQDSKDSTYSLSSTLTLSKADYEKHKVYACEVTHQGLSSPVTKSFNRGEC
notes: hz9B11_VH1 + hz9B11_VL1; human IgG1, kappa
B2: hz9B11-8 (antibody, human IgG1, kappa)
heavy: not shown
light: B1 light with Y87F
notes: hz9B11_VH2 + hz9B11_VL4; human IgG1, kappa
B3: hz9B11-5 (antibody, human IgG1, kappa)
heavy: not shown
light: B1 light with Y49K
notes: hz9B11_VH1 + hz9B11_VL3; human IgG1, kappa
B4: hz9B11-9 (antibody, human IgG1, kappa)
heavy: not shown
light: B1 light with Y49K, Y87F
notes: hz9B11_VH1 + hz9B11_VL5; human IgG1, kappa
B5: hz9B11-10 (antibody, human IgG1, kappa)
heavy: not shown
light: B1 light with Y49K, Y87F
notes: hz9B11_VH2 + hz9B11_VL5; human IgG1, kappa
B6: hz9B11-7 (antibody, human IgG1, kappa)
heavy: not shown
light: B1 light with Y87F
notes: hz9B11_VH1 + hz9B11_VL4; human IgG1, kappa
B7: hz9B11-2 (antibody, human IgG1, kappa)
heavy: not shown
light: B1 light
notes: hz9B11_VH2 + hz9B11_VL1; human IgG1, kappa
B8: hz9B11-3 (antibody, human IgG1, kappa)
heavy: not shown
light: EIVLTQSPDFQSVTPKEKVTITCRASQSINNNLHWYQQKPDQSPKLLIKYASQSISGVPSRFSGSGSGTDFTLTINSLEAEDAATYYCQQSHSWPYTFGQGTKLEIKRTVAAPSVFIFPPSDEQLKSGTASVVCLLNNFYPREAKVQWKVDNALQSGNSQESVTEQDSKDSTYSLSSTLTLSKADYEKHKVYACEVTHQGLSSPVTKSFNRGEC
notes: hz9B11_VH1 + hz9B11_VL2; human IgG1, kappa
B9: hz9B11-4 (antibody, human IgG1, kappa)
heavy: not shown
light: B8 light
notes: hz9B11_VH2 + hz9B11_VL2; human IgG1, kappa
B10: hz17A3-6 (antibody, human IgG1, kappa, V domains shown)
VH: EVQLVQSGAEVKKPGASVKVSCKASGYTFTDYALHWVRQAPGQGLEWMGLISTYSSNTNYNQKFKDRVTMTRDTSISTAYMELSRLRSEDTAVYYCARGITAVVGTRYYAMDYWGQGTLVTVSS
VL: EIVLTQSPGTLSLSPGERATLSCRASQSISNNLHWYQQKPGQAPRLLIKYTSQNISGIPDRFSGSGSGTDFTLTISRLEPEDFAVYYCQQSYSWPLTFGGGTKVEIKR
notes: hz17A3_VH4 + hz17A3_VL3; human IgG1, kappa
B11: hz17A3-20 (antibody, human IgG1, kappa, V domains shown)
VH: B10 VH with S52N
VL: EIVLTQSPDFQSVTPKEKVTITCRASQSISNNLHWYQQKPDQSPKLLIKYTSQNISGVPSRFSGSGSGTDFTLTINSLEAEDAATYYCQQSYSWPLTFGGGTKVEIKR
notes: hz17A3_VH3 + hz17A3_VL8; human IgG1, kappa
B12: hz17A3-22 (antibody, human IgG1, kappa, V domains shown)
VH: B10 VH with S52N, N57S
VL: B11 VL
notes: hz17A3_VH5 + hz17A3_VL8; human IgG1, kappa
B13: hz17A3-23 (antibody, human IgG1, kappa, V domains shown)
VH: B10 VH with S52N
VL: B11 VL with K49Y, Y87F
notes: hz17A3_VH3 + hz17A3_VL9; human IgG1, kappa
B14: hz17A3-16 (antibody, human IgG1, kappa, V domains shown)
VH: B10 VH with S52N, N57S
VL: B10 VL with N54S
notes: hz17A3_VH5 + hz17A3_VL6; human IgG1, kappa
B15: hz17A3-15 (antibody, human IgG1, kappa, V domains shown)
VH: B10 VH
VL: B10 VL with N54S
notes: hz17A3_VH4 + hz17A3_VL6; human IgG1, kappa
B16: hz17A3-4 (antibody, human IgG1, kappa, V domains shown)
VH: B10 VH with E1Q, M48I, S52N, E89D
VL: B11 VL with K49Y
notes: hz17A3_VH2 + hz17A3_VL2; human IgG1, kappa
B17: hz17A3-13 (antibody, human IgG1, kappa, V domains shown)
VH: B10 VH with S52N, N57S
VL: B10 VL with N31S
notes: hz17A3_VH5 + hz17A3_VL5; human IgG1, kappa
B18: hz17A3-17 (antibody, human IgG1, kappa, V domains shown)
VH: B10 VH with S52N
VL: B10 VL with N31S, N54S
notes: hz17A3_VH3 + hz17A3_VL7; human IgG1, kappa
B19: hz17A3-12 (antibody, human IgG1, kappa, V domains shown)
VH: B10 VH
VL: B10 VL with N31S
notes: hz17A3_VH4 + hz17A3_VL5; human IgG1, kappa
B20: hz17A3-8 (antibody, human IgG1, kappa, V domains shown)
VH: B10 VH with S52N
VL: B10 VL with K49Y, Y87F
notes: hz17A3_VH3 + hz17A3_VL4; human IgG1, kappa
B21: hz17A3-19 (antibody, human IgG1, kappa, V domains shown)
VH: B10 VH with S52N, N57S
VL: B10 VL with N31S, N54S
notes: hz17A3_VH5 + hz17A3_VL7; human IgG1, kappa
B22: hz17A3-3 (antibody, human IgG1, kappa, V domains shown)
VH: B10 VH with E1Q, S52N, E89D
VL: B11 VL with K49Y
notes: hz17A3_VH1 + hz17A3_VL2; human IgG1, kappa
B23: hz17A3-18 (antibody, human IgG1, kappa, V domains shown)
VH: B10 VH
VL: B10 VL with N31S, N54S
notes: hz17A3_VH4 + hz17A3_VL7; human IgG1, kappa
B24: hz17A3-24 (antibody, human IgG1, kappa, V domains shown)
VH: B10 VH
VL: B11 VL with K49Y, Y87F
notes: hz17A3_VH4 + hz17A3_VL9; human IgG1, kappa
B25: hz17A3-10 (antibody, human IgG1, kappa, V domains shown)
VH: B10 VH with S52N, N57S
VL: B10 VL with K49Y, Y87F
notes: hz17A3_VH5 + hz17A3_VL4; human IgG1, kappa
B26: hz17A3-11 (antibody, human IgG1, kappa, V domains shown)
VH: B10 VH with S52N
VL: B10 VL with N31S
notes: hz17A3_VH3 + hz17A3_VL5; human IgG1, kappa
B27: hz17A3-9 (antibody, human IgG1, kappa, V domains shown)
VH: B10 VH
VL: B10 VL with K49Y, Y87F
notes: hz17A3_VH4 + hz17A3_VL4; human IgG1, kappa
B28: hz17A3-21 (antibody, human IgG1, kappa, V domains shown)
VH: B10 VH
VL: B11 VL
notes: hz17A3_VH4 + hz17A3_VL8; human IgG1, kappa
B29: hz17A3-7 (antibody, human IgG1, kappa, V domains shown)
VH: B10 VH with S52N, N57S
VL: B10 VL
notes: hz17A3_VH5 + hz17A3_VL3; human IgG1, kappa
B30: hz17A3-25 (antibody, human IgG1, kappa, V domains shown)
VH: B10 VH with S52N, N57S
VL: B11 VL with K49Y, Y87F
notes: hz17A3_VH5 + hz17A3_VL9; human IgG1, kappa

This assay addresses T1, recombinant human B7-H3-his extracellular domain protein (UniProtKB-Q5ZPR3, 1 aa-461 aa) (human, UniProt Q5ZPR3 29-461).
T1 construct: range 1-461; The printed range 1-461 starts at residue 1 and so includes the signal peptide; also called Human B7-H3 ECD; recombinant human B7-H3-his protein; not shown: C-terminal his tag
T1 sequence (looked up): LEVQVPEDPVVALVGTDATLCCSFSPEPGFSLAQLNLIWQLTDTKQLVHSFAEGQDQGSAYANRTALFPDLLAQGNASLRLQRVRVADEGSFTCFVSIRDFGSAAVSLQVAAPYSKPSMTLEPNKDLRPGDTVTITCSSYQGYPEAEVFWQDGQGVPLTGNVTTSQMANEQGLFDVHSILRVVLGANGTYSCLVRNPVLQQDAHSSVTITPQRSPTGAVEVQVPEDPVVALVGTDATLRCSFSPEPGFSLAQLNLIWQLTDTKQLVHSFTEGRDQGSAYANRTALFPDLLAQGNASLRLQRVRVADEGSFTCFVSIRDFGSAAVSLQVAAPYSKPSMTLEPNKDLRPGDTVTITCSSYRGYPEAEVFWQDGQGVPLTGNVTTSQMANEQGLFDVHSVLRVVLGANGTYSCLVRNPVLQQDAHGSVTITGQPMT
The experiment in a line: BLI (Octet QKe), antibody on AHC biosensor, B7-H3-his 60 nM in solution. Here is the method:
According to the mutation designs, site-directed mutagenesis was performed in the plasmids expressing the humanized light chains and heavy chains respectively using StarMut gene Site-directed Mutagenesis Kit (Cat.: T111-01, GenStar). The mutated plasmids were transformed into E. coli cells for expansion, and plasmids expressing the humanized and mutated light and heavy chains based on the antibodies 9B11, 10B4, and 17A3 were obtained. […] 5-6 days after cell transfection, culture supernatants were purified through ProA affinity chromatography column to obtain different humanized antibodies. Affinities of the antibodies were determined by an assay including capturing Fc fragments of the antibodies with anti-human IgG Fc capture (AHC) biosensors using Octet QKe system instrument from Fortebio. For the assay, each of the humanized antibodies and the chimeric antibodies based on the antibodies 9B11, 10B4, and 17A3 was diluted to 4 μg/ml in PBS, and was allowed to flow through the surface of an AHC biosensor (Cat.: 18-0015, PALL) for 300 s. Recombinant human B7-H3-his protein (Accession No.: UniProtKB-Q5ZPR3, 1 aa-461 aa) was used as a mobile phase, and its concentration was 60 nM. The association time was 100 s and the dissociation time was 300 s. When the assay was finished, data from which the response values of blank control had been deducted were fitted to a 1:1 Langmuir binding model using software, and then kinetic constants for antigen-antibody binding were calculated. The light and heavy chain combinations and the affinity constant KD values of the humanized and the mutant antibodies based on the antibodies 9B11, 10B4, and 17A3 are shown in Tables 6-8 respectively.
Broadly, the Kd is the concentration at which binding is half-saturated. Turning to B1, the Kd is 4.52 nM. The result for B2 reads 4.51 nM; that for B3, 0.121 nM; that for B4, 0.107 nM. The result for B5 reads 0.139 nM; that for B6, 3.07 nM. The result for B7 reads 6.28 nM; that for B8, 0.118 nM.

In the case of B9, the dissociation constant Kd came to 0.141 nM. Take B10: the Kd came to 0.401 nM. In the case of B11 it was 0.289 nM. The result for B12 reads 0.479 nM. In the case of B13 it was 2.58 nM.

B14: the Kd is 0.299 nM. The result for B15 reads 0.371 nM. Turning to B16, the Kd is 0.899 nM. In the case of B17 it was 0.699 nM; in that of B18, 0.0328 nM; in that of B19, 0.573 nM. In the case of B20 it was 0.462 nM; in that of B21, 0.411 nM; in that of B22, 0.598 nM. The result for B23 reads 0.172 nM; that for B24, 1.91 nM.

For B25, the Kd came to 0.401 nM.

For the molecule B26, the Kd worked out at 0.299 nM.

Regarding B27, the Kd was found to be 0.431 nM. Consider B28, for which the dissociation constant (Kd) was determined as 0.433 nM. For B29, the Kd stood at 0.422 nM. Regarding B30, the Kd was 4.88 nM.
